Results: US9598687B2

Biological target: recombinant human prothrombin (Factor II) (human) (UniProt P00734)

## endoproteinase Lysyl endopeptidase (Lys-C) (tool reagent)
  Lys-C fragments identified by reverse phase UPLC and mass spectrometry (peptide mapping): 25 fragments
